This test deals with T1, FANCD2 (human, UniProt Q9BXW9 1-1451).
T1 construct: The cryo-EM methods say only 'purified FANCD2'; The ubiquitination and deubiquitination reactions used N-terminally FLAG-tagged FANCD2; the functional rows use this molecule for it (for the USP1 rows in its K561-ubiquitinated form, D2Ub); Constructs as in Arkinson et al 2018 and Rennie et al 2020; also called D2^WT; source: Sf21 insect cells, purified (NiNTA, anion exchange, gel filtration)
Nature of the test: cryo-EM structure; ubiquitinated His6-V5-FANCI mixed with FANCD2 at 1:1 molar ratio, 61 bp dsDNA added at 1:1; 20 mM Tris pH 8.0, 150 mM NaCl, 2 mM DTT; 4.1 Å global resolution. The conditions noted are these: both partners purified.

T1 sequence (Q9BXW9 whole entry): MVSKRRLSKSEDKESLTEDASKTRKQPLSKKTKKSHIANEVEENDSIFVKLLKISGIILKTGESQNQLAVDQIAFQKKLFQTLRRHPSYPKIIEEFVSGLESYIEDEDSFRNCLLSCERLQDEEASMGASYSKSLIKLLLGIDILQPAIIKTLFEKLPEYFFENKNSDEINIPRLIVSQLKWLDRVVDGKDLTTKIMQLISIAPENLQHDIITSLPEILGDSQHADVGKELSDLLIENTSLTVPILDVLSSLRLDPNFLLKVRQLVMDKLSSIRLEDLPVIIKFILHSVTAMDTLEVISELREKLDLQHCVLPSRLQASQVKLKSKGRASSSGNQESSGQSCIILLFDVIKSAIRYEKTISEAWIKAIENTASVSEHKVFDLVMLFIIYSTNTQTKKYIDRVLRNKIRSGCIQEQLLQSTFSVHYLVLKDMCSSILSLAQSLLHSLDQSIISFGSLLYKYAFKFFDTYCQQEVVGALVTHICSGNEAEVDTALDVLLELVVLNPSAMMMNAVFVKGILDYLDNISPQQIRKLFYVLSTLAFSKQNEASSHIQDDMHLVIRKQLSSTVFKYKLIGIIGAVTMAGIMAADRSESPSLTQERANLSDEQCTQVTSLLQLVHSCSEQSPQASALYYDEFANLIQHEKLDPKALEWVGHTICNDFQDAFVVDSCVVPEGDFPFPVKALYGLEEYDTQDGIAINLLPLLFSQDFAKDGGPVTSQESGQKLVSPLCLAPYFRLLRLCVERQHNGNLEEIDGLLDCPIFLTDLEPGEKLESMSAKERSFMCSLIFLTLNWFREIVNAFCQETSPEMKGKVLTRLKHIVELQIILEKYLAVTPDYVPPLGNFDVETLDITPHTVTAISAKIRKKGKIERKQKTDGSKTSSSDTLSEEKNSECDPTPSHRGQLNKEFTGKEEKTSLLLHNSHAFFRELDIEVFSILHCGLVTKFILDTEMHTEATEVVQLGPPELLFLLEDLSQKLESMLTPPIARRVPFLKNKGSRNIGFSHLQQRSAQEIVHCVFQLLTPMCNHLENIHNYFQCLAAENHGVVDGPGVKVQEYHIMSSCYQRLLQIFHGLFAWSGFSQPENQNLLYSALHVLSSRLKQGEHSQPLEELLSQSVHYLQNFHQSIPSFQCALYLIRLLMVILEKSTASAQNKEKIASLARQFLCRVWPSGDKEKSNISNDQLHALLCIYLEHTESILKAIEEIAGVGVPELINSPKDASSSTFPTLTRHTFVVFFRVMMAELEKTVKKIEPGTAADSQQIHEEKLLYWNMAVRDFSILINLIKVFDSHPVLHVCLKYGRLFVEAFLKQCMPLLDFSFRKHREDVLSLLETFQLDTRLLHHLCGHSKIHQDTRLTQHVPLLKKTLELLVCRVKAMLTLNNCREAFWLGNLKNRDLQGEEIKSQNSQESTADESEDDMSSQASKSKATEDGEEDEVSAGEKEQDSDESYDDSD

B1: FANCI (the FANCI chain of ubiquitinated His6‐V5‐FANCI) (natural protein, human, UniProt Q9NVI1 1-1328, looked up)
chain: MDQKILSLAAEKTADKLQEFLQTLREGDLTNLLQNQAVKGKVAGALLRAIFKGSPCSEEAGTLRRRKIYTCCIQLVESGDLQKEIASEIIGLLMLEAHHFPGPLLVELANEFISAVREGSLVNGKSLELLPIILTALATKKENLAYGKGVLSGEECKKQLINTLCSGRWDQQYVIQLTSMFKDVPLTAEEVEFVVEKALSMFSKMNLQEIPPLVYQLLVLSSKGSRKSVLEGIIAFFSALDKQHNEEQSGDELLDVVTVPSGELRHVEGTIILHIVFAIKLDYELGRELVKHLKVGQQGDSNNNLSPFSIALLLSVTRIQRFQDQVLDLLKTSVVKSFKDLQLLQGSKFLQNLVPHRSYVSTMILEVVKNSVHSWDHVTQGLVELGFILMDSYGPKKVLDGKTIETSPSLSRMPNQHACKLGANILLETFKIHEMIRQEILEQVLNRVVTRASSPISHFLDLLSNIVMYAPLVLQSCSSKVTEAFDYLSFLPLQTVQRLLKAVQPLLKVSMSMRDCLILVLRKAMFANQLDARKSAVAGFLLLLKNFKVLGSLSSSQCSQSLSVSQVHVDVHSHYNSVANETFCLEIMDSLRRCLSQQADVRLMLYEGFYDVLRRNSQLANSVMQTLLSQLKQFYEPKPDLLPPLKLEACILTQGDKISLQEPLDYLLCCIQHCLAWYKNTVIPLQQGEEEEEEEEAFYEDLDDILESITNRMIKSELEDFELDKSADFSQSTSIGIKNNICAFLVMGVCEVLIEYNFSISSFSKNRFEDILSLFMCYKKLSDILNEKAGKAKTKMANKTSDSLLSMKFVSSLLTALFRDSIQSHQESLSVLRSSNEFMRYAVNVALQKVQQLKETGHVSGPDGQNPEKIFQNLCDITRVLLWRYTSIPTSVEESGKKEKGKSISLLCLEGLQKIFSAVQQFYQPKIQQFLRALDVTDKEGEEREDADVSVTQRTAFQIRQFQRSLLNLLSSQEEDFNSKEALLLVTVLTSLSKLLEPSSPQFVQMLSWTSKICKENSREDALFCKSLMNLLFSLHVSYKSPVILLRDLSQDIHGHLGDIDQDVEVEKTNHFAIVNLRTAAPTVCLLVLSQAEKVLEEVDWLITKLKGQVSQETLSEEASSQATLPNQPVEKAIIMQLGTLLTFFHELVQTALPSGSCVDTLLKDLCKMYTTLTALVRYYLQVCQSSGGIPKNMEKLVKLSGSHLTPLCYSFISYVQNKSKSLNYTGEKKEKPAAVATAMARVLRETKPIPNLIFAIEQYEKFLIHLSKKSKVNLMQHMKLSTSRDFKIKGNILDMVLREDGEDENEEGTASEHGGQNKEPAKKKRKK
modifications: K523 isopeptide-linked to G76 of ubiquitin
notes: The FANCI chain of m1, written on its own for its contacts with FANCD2 in the structure; source: Sf21 insect cells, purified (NiNTA, anion exchange, gel filtration); ubiquitinated in vitro; not shown: His6, N-terminal, kept; V5, N-terminal, kept
With B1, the binding result is “binds”.

The values above are taken from publication PMC9890228 (The EMBO Journal, 2022).
